Source: article PMC7600425, “Modulation of Guanylate Cyclase Activating Protein 1 (GCAP1) Dimeric Assembly by Ca^2+ or Mg^2+: Hints to Understand Protein Activity” (Biomolecules, 2020)

B1: human guanylyl cyclase-activating protein 1 (hGCAP1), N-terminally myristoylated, E6S (natural protein, UniProt P43080 1-201, looked up)
chain: MGNVMSGKSVEELSSTECHQWYKKFMTECPSGQLTLYEFRQFFGLKNLSPSASQYVEQMFETFDFNKDGYIDFMEYVAALSLVLKGKVEQKLRWYFKLYDVDGNGCIDRDELLTIIQAIRAINPCSDTTMTAEEFTDTVFSKIDVNGDGELSLEEFIEGVQKDQMLLDTLTRSLDLTRIVRRLQNGEQDEEGADEAAEAAG
modifications: N-terminal myristoylation (myristoylated Gly at the N-term); in the MST experiments the labelled copy carries the dye NT-647-NHS on primary amines (lysine residues), about 1:1
notes: printed as 201 amino acids, 22.9 kDa; E6S needed for myristoylation in E. coli; In MST a dye-labelled copy was titrated with unlabelled protein; also called human GCAP1; recombinant human (h) GCAP1; source: E. coli BL21-CodonPlus RP, co-expressed with yeast N-myristoyltransferase, purified (ion exchange, SEC)

Legend:
[1] = biological target: RetGC (Homo sapiens) (UniProt Q02846); conditions: cited from earlier work
[2] = biological target: the molecule itself; experiment: SEC; analytical SEC, Superdex 75 Increase 10/300 GL, six dilutions (87-2 µM injected); 20 mM Tris-HCl pH 8.0, 100 mM NaCl, 1 mM DTT, 5 mM CaCl2; Ca2+-bound; Kd from a 3-parameter fit of elution volume against concentration; dimer to monomers
[3] = biological target: the molecule itself; experiment: MST; NT-647-NHS-labelled hGCAP1 with dilutions of unlabelled hGCAP1; 20 mM Tris-HCl, 150 mM KCl, 5 mM MgCl2, 2.5 mM EGTA, pH 7.5, 1 mM DTT, 0.05% Tween20; Mg2+-bound; dimer to monomers
[4] = biological target: the molecule itself; experiment: SEC; analytical SEC, Superdex 75 Increase 10/300 GL, dilution series; 20 mM Tris-HCl pH 8.0, 100 mM NaCl, 1 mM DTT, 5 mM MgCl2, 2.5 mM EGTA; Mg2+-bound; Kd from a 3-parameter fit of elution volume against concentration; dimer to monomers
[5] = biological target: the molecule itself; experiment: MST; NT-647-NHS-labelled hGCAP1 with 16 dilutions of unlabelled hGCAP1 (46.6 µM to 11.4 nM); 20 mM Tris-HCl, 100 mM NaCl, pH 7.5, 1 mM DTT, 5 mM CaCl2, 0.05% Tween20; 24 °C; Ca2+-bound; dimer to monomers

Sequence of RetGC (Homo sapiens) (Q02846 52-1103): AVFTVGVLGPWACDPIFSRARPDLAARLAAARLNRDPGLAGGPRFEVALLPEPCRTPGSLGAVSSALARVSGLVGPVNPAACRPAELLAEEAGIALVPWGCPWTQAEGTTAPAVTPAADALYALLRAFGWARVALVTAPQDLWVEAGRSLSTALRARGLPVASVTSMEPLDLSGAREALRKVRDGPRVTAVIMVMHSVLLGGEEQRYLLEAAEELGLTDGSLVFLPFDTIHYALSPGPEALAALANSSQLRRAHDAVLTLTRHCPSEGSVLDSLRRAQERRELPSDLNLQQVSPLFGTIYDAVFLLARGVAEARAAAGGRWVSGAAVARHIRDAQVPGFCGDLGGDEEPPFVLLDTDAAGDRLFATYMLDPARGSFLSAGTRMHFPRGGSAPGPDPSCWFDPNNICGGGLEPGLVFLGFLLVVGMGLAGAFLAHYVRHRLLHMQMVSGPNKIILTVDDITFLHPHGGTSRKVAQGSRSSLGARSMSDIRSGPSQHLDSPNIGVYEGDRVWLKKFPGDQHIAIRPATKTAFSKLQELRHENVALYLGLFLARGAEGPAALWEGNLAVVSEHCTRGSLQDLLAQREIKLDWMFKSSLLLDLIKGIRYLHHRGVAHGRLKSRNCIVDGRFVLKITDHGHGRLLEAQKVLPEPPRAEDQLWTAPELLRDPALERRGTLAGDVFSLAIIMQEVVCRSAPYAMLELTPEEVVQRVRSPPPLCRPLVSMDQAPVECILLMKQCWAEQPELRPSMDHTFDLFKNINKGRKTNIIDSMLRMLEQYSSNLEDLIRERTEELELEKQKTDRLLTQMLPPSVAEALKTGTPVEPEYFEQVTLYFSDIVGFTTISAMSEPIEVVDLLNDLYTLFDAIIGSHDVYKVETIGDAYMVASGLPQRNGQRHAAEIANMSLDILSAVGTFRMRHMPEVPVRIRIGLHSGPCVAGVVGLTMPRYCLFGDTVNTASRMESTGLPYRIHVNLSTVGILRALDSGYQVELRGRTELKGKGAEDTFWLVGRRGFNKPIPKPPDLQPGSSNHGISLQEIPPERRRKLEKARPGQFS

Molecule | Kd [1] | Kd [2] | stoichiometry N [2] | Kd [3] | Kd [4] | Kd [5]
GCAP1 (from UniProt P43080) | 3.2 µM | – | – | – | – | –
B1 | – | 8.8 ± 0.7 µM | 2 | 77.2 ± 8.9 µM | 45 ± 15 µM | 9.4 ± 1.3 µM
